This is an account of results in publication doi:10.1101/2020.04.03.022970v1.

Substrate in this data set: N[C@@H](Cc1c[nH]c2ccccc12)C(=O)O
In words: radiolabelled uptake in intact E. coli MQ614. The class given is cell-based, Halalkalibacterium halodurans. As to conditions: 10-second uptake, 10 mM Tris/Mes pH 8.5, 150 mM NaCl, labelled compound.

B1: MhsT (Halalkalibacterium halodurans C-125) (protein)
chain: SLKQQTGREQWASRLGFILAAMGSAVGLGNIWRFSYVTGENGGAAFLLVYLGFIALIGIPIVLAEFTIGRRAQSDAVGSFEKLAPGKPWKVAGLMGVAAGFLILSFYGVIAGWILFYLFNYITGQLWSAPAEGFGGFFEGFIANPTLPLFWQALFMIATIWIVAIGVKKGIERSNKILMPLLGVLLIALAIYSLTLGGAKEGLAFLFSPDWSALKDPGVYLAAISQAFFTLSLGMGALITYGSYVSKDSRLPGAAVSVAGLDTAFAIIAGIMIFPAVFALGLSPSGGPGLVFVVLPDIFDSIRLGPIVGIAFFILLGAAALSSAVSLLEVPVAYFMRKFDWSRKQAAITLGVIITLLGIPSSLSFGVLGEVTIIPGLNIFDSVDFIASSVFLPLGGMIIALFIGWGWKTSDALAESDLTDSVWGKLWILSLRFIAPIAILIVFLSAFQIFFN
Turning to B1, the Km amounted to 1.07 ± 0.19 µM.

Usually Km stands for the concentration of substrate that gives half-maximal velocity.
